Laboratory results published in patent publication US20110064726A1 (published 2011).

What was measured:
[1] = molecular target: T1, human IgE (full length human immunoglobulin E) (human, UniProt P01854 1-546); assay: serum free IgE depletion ELISA; DIN 0451 experiment 2, initial free IgE 534 ng/mL
[2] = molecular target: T1, human IgE (full length human …); assay: ELISA, immunoglobulin coated at 4 µg/mL, anti-human IgG2 detection
Method: (§1) Wells were washed 3× with 150 μL wash buffer (0.05% Tween-20 (Sigma, Cat. No. P7949)/PBS) then blocked with 150 μL/well blocking buffer (2.5% BSA (Sigma, Cat. No. A7030)/PBS) for 2 hours at room temperature. Wells were washed 3× with 150 μL wash buffer/well. […] Antibodies were diluted in diluent buffer (PBS/1% BSA/0.05% Tween-20) and this was added to blank control wells (duplicate wells for each secondary antibody used). Antibodies were incubated for 2 hours at room temperature. Wells were washed 3× with 150 μL wash buffer/well. Binding of control antibodies to immunoglobulin was detected with anti-mouse IgG-HRP conjugate (Sigma, Cat. No. A4416) diluted 1:8000 in diluent buffer. 50 μL/well was added to control antibody and blank wells. Wells were incubated for 1 hour at room temperature, then washed 3× with 150 μL wash buffer/well. 50 μl OPD (Dako, Cat. No. […] Wells were incubated for 1 hour at room temperature then washed 3× with 150 μL wash buffer/well. Streptavidin-HRP (Amersham Bioscience, Cat. No. RPN 1231) diluted 1:2000 in diluent buffer was added to all wells and incubated for 45 minutes at room temperature. Wells were washed (3×150 μL wash buffer).

[3] = molecular target: T2, human IgG1 (human, UniProt P01857-1 1-330 = IgG part); assay: as above
T2 construct: bought preparation coated on the ELISA plate; not shown: bought immunoglobulin, light chain not described
T2 sequence (P01857 other isoform, or with tags, fused parts or gaps): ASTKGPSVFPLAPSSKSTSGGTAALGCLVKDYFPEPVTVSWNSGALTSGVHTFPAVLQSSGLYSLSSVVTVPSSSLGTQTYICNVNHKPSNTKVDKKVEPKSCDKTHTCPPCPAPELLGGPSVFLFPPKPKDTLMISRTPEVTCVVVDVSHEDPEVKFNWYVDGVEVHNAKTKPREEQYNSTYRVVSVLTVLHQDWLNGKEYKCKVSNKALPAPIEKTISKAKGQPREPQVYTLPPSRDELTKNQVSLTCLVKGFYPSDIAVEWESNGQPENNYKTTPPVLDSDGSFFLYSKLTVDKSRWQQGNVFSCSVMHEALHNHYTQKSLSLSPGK
Method: as §1

[4] = molecular target: T3, human IgG3 (human, UniProt P01860-1 1-377); assay: as above
T3 construct: bought preparation coated on the ELISA plate; not shown: bought immunoglobulin, light chain not described
T3 sequence (P01860 other isoform, or with tags, fused parts or gaps): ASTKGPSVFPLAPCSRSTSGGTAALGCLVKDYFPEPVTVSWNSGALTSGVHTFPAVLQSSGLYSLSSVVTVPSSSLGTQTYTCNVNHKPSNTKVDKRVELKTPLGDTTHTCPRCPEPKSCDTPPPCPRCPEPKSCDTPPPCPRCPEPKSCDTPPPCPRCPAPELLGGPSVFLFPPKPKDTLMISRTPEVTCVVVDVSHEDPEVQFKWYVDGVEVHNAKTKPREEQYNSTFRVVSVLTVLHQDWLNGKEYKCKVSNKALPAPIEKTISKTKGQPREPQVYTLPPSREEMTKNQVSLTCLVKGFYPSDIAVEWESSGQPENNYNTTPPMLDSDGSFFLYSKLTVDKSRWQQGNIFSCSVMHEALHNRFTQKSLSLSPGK
Method: as §1

[5] = molecular target: T4, human IgA (human); assay: as above
T4 construct: bought preparation coated on the ELISA plate
Method: as §1

[6] = molecular target: T1, human IgE (full length human …); assay: serum free IgE depletion ELISA; DIN 0284, initial free IgE 339 ng/mL
[7] = molecular target: T1, human IgE (full length human …); assay: serum free IgE depletion ELISA; DIN 0155, initial free IgE 93 ng/mL
[8] = molecular target: T1, human IgE (full length human …); assay: serum free IgE depletion ELISA; DIN 0632 experiment 2, initial free IgE 289 ng/mL
[9] = molecular target: T1, human IgE (full length human …); assay: serum free IgE depletion ELISA; DIN 0347, initial free IgE 221 ng/mL
[10] = molecular target: T1, human IgE (full length human …); assay: serum free IgE depletion ELISA; DIN 0321 experiment 1, initial free IgE 262 ng/mL
[11] = molecular target: T1, human IgE (full length human …); assay: serum free IgE depletion ELISA; DIN 0623 experiment 1, initial free IgE 145 ng/mL
[12] = molecular target: T1, human IgE (full length human …); assay: serum free IgE depletion ELISA; DIN 0451 experiment 1, initial free IgE 557 ng/mL
[13] = molecular target: T1, human IgE (full length human …); assay: serum free IgE depletion ELISA; DIN 0321 experiment 2, initial free IgE 265 ng/mL
[14] = molecular target: T1, human IgE (full length human …); assay: serum free IgE depletion ELISA; DIN 0382, initial free IgE 2827 ng/mL
[15] = molecular target: T1, human IgE (full length human …); assay: serum free IgE depletion ELISA; DIN 0011 experiment 2, initial free IgE 326 ng/mL
[16] = molecular target: T1, human IgE (full length human …); assay: serum free IgE depletion ELISA; DIN 0011 experiment 1, initial free IgE 555 ng/mL
[17] = molecular target: T1, human IgE (full length human …); assay: serum free IgE depletion ELISA; DIN 0623 experiment 2, initial free IgE 133 ng/mL
[18] = molecular target: T1, human IgE (full length human …); assay: serum free IgE depletion ELISA; DIN 0649, initial free IgE 93 ng/mL
[19] = molecular target: T1, human IgE (full length human …); assay: serum free IgE depletion ELISA; DIN 0748, initial free IgE 4609 ng/mL
[20] = molecular target: T1, human IgE (full length human …); assay: serum free IgE depletion ELISA; DIN 0632 experiment 1, initial free IgE 532 ng/mL
[21] = molecular target: T1, human IgE (full length human …); assay: serum free IgE depletion ELISA; DIN 0591, initial free IgE 152 ng/mL

T1 sequence (P01854 whole entry): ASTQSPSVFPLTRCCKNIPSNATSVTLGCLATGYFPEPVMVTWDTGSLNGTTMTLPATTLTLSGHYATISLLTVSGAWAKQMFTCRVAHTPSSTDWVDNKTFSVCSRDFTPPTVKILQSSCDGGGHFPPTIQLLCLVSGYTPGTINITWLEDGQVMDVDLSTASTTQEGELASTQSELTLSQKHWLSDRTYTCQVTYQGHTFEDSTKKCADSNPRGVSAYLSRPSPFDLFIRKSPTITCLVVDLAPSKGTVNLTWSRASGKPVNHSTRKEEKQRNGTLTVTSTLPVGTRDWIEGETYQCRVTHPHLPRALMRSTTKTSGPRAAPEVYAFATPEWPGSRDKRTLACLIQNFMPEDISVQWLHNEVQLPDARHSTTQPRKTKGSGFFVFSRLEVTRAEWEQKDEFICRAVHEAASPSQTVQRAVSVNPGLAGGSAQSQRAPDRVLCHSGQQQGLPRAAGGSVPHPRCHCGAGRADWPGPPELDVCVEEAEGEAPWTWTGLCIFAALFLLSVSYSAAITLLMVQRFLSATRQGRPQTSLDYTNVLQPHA

IC25ng/mL [1]: 39.7 µg/mL | A290 nm [2]: 2.57 absorbance | A290 nm [3]: 0.07 absorbance | A290 nm [4]: 0.04 absorbance | A290 nm [5]: 0.04 absorbance | IC25ng/mL [6]: 2.45 µg/mL | IC25ng/mL [7]: 1.81 µg/mL | IC25ng/mL [8]: 6.31 µg/mL | IC25ng/mL [9]: 4.92 µg/mL | IC25ng/mL [10]: 1.34 µg/mL | IC25ng/mL [11]: 0.5 µg/mL | IC25ng/mL [12]: 11.6 µg/mL | IC25ng/mL [13]: 7.9 µg/mL | IC25ng/mL [14]: 25 µg/mL | IC25ng/mL [15]: 6.34 µg/mL | IC25ng/mL [16]: 3.3 µg/mL | IC25ng/mL [17]: 4.13 µg/mL | IC25ng/mL [18]: 1.95 µg/mL | IC25ng/mL [19]: 25.1 µg/mL | IC25ng/mL [20]: 8.91 µg/mL | IC25ng/mL [21]: 2.35 µg/mL
B1: recombinant 5.948.1 (antibody, human IgG2, kappa, V domains shown)
VH: QVQLVQSGAEVKKPGASVKVSCKASGYTFTSYDINWVRQATGQGLEWMGWMDPNSGNTGYAQKFQGRVTMTRNTSISTAYMELSSLRSEDTAVYYCARGHYDSDGYYSFSGMDVWGQGTTVTVSS
VL: not shown
notes: human IgG2 kappa; two batches (762.8 µg/mL and 5.2 mg/mL) were tested; also called 5.948.1 (recombinant); 5.948.1 - Batch 1
